Stoichiometry N data for 1 substance are collected here from doi:10.1101/2023.04.10.536218.

The target of this assay is major capsid protein VP1 of sheep polyomavirus (ShPyV) (sheep polyomavirus (ShPyV)). The experiment in a line: crystal structure.

“major capsid protein VP1 of sheep polyomavirus (ShPyV) (natural protein)” had a stoichiometry N of 5.
